B1: psNb 2-38 (VHH)
VHH: QVQLVESGGGLVQAGGSLRLSCAAAARFSTSAMGWFRQAPGKEREFVAAISWSNTNTHYADTVKGRFTISADTAKETVDLQMNSLKPEDTAVYYCVQGGWGIRQPIIVDYWGKGTQVTVSS
B2: psNb 2-45 (VHH)
VHH: QVQLVESGGGLVQAGGSLRLSCTASGYDFSILAIAWYRQAPGKERELVAAISRVGSTDYADSVKGRFTISRDNTKNTVSLQMDSLKPEDTAVYYCNAGIPMTTVLSGLGFWGQGTQVTVSS
B3: psNb 2-34 (VHH)
VHH: HVQLVESGGGLVQAGGSLRLSCAASGRTFSRYAAGWFRQAPGKEREFVAVIEWDGDSAYYADPVKGRFTISRDNAKNTVYLQMNRLKPEDTAVYICAVGGNHYSRSKYYNLDEYDDWGQGTQVTVSS
B4: psNb 2-57 (VHH)
VHH: QVQLVESGGGLVQAGGSLRLSCAVSGRTISTFGMGWFRQAPGKEREFVATITRDEDMLLYADSVKGRFTISRDTAKNMVFLQMNSLKIEDTALYYCAVRRDSSWGYSRQSTEYDYWGQGTQVTVSS
B5: psNb 1-8 (VHH)
VHH: QVQLVESGGGLVQTGGSLRLSCAASGRTFSNYVMGWFRQAPGKEREFVSSIEWNSENTFYANSVKGRFTISRDNAKNTVYLQMNSLKAEDTAVYYCAADRGSSYYYTRASEYTYWGQGTQVTVSS
B6: psNb 2-67 (VHH)
VHH: EVQLVESGGGLVQTGGSLRLSCALSGYTFSIFPTAWFRQAPGKEREFVAGIRWNGSTRDYTEYADFVKGRFTISRDNAKNMVYLQMISLKPEDTALYYCAASDGVIDGTNANAYRYWGQGTQVTVSS
B7: psNb 2-65 (VHH)
VHH: HVQLVESGGGLVQAGGSLRLSCAASGTISTLNAMGWYRQAPGKQRELLASISNLGTTYHADSVAGRFTISRGSAKNTVNLQMNSLKPDDTAVYYCNTRVLEGGTQIRDYWGQGTQVTVSS
B8: psNb 1-23 (VHH)
VHH: QVQLVESGGGLVQAGGSLRLSCAASGRTDSISDMGWFRQAPGKEREFVAVVGWSGGGTDYAHSVKGRFTISRDNAKNTVYLQMNSLKPEDTAVYYCAVGSLRVGSFSVEYWGQGTQVTVSS
B9: psNb 1-22 (VHH)
VHH: HVQLVESGGGLVQPGGSLRLSCAASGRSFNSYLMGWFRQAPGKEREFVAWISGSPHDIIRYRDSVKDRFTISRDNAKNTVYLQMNSLKPVDTAVYYCAVGSLRVGSFSPDYWGQGTQVTVSS

biological target: SARS-CoV-2 spike HexaPro (S) (SARS-CoV-2 (Wuhan-Hu-1), UniProt P0DTC2, stabilised); assay: cryo-EM structure

Does B1 bind?
Result: binds

Does B2 bind?
Result: binds

Does B3 bind?
Result: binds

Does B4 bind?
Result: binds

Does B5 bind?
Result: binds

Does B6 bind?
Result: binds

Does B7 bind?
Result: binds

Does B8 bind?
Result: binds

Does B9 bind?
Result: binds

Source: article PMC9174178 (Cell Reports, 2022)
